Laboratory results from the domain aggregation screens of Martell et al. (2025).

Assay: soluble fraction after stress (log2 fold change); higher = more stays soluble; pooled small domains, quantitative proteomics
Settings: stress: 75 degC
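Also: 20 min heating vs room temperature control held 20 min.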

Row | Sequence | soluble fraction (log2)
1 | HMFKINQKVKLIAPLPYLKTSENMPMLRPPDLVAIDEIGEVLSLKSPETVEVRFRRGSFLIDIDKLEKVD | -1.77
2 | HMFKYLLDTNIVIYVIKKRPIEVMGVFNQNANRMAISAITFSELQHGAEKSVRVQENLNAIEEFTTLIDI | -0.0448
3 | HMFKYRELLDWAKNRFDDLEVSIAPKALALLVESIGTDLRLLDSEIQKLSMYKPLEMISTNDVEDLVA | -1.01
4 | HMFLTDHEVSKVARKRAHAEYLSSLSWRQRTFGDHGERSKNFEAWYKEHSHLYETEKLYKELYKN | -1.03
5 | HMFLTPLEEARLVIEEIVIPKNIAVDLSPRPSALRKQQHELIAHYQLKSFSVGNERTKRLRILPKVI | 0.229
6 | HMFMLQAKRVPVSELENFKGIVAEDVVSQSRALILPRGSNLSWLSSSAMQNLSTRLALEGVESISIYL | -2.68
7 | HMFMVAGHLSEKNGYFYAVINYNDSLGNRKTKWMSTGLTVKGNKKRAEAILAEKRRTFQPDEPV | -1.71
8 | HMFNDPTMEDALVNLKGITNEVLSYLSSSKIKKLEELAEMSVPELKDIVENISDDEASALIMEARKPWF | -0.373
9 | HMFNEFEDIPDIISAEGIDPAMREEVAANLKKYYKNPDAMLALAPLEREYYEKLVGILSEKIELKKEN | 0.802
10 | HMFNFPEEVRVQLAKSEQLRNLLIPMSETVRDALSGEELWFGRTIFNTTSKKIESWTNPGVWVE | -1.39
11 | HMFNIIARQEIDEILYEYKIENSEDYKNRDPEELAEIYENIKTVQENHDLSDDDVEELLKSIFSDY | -1.25
12 | HMFNKTKVPNFIDMNYYEEIEGNSEYDKFNFADPITKNDDTKAPGTVIDQTPEKGTRIDEEKTVIQLTIA | 0.114
13 | HMFNRAVSDNEALQVREHFDRDATVMSLAKKYGVSTVTIQRILLGKTYRNVGGPLFDKATLKKRMGN | -1.2
14 | HMFNVKAYEKAVKSYITKRKPLGEALDEEIMDELSVKFGIVDDALEDLFKQIQDAGISIVDKDGNPSPLAL | -0.792
15 | HMFPELEPDEQLIADLLRKTNNLQINIITVRTGLPINRVTALLFQMEMKGVVRPLAGGTYHLLV | -2.14
16 | HMFPELSPEEQLIVEVLSKTNDLQVNLISVKTNIDISRLTSLLFTLEMKGVIKTFAGGMYHLL | -1.19
17 | HMFPSLSPEEQAVVDVLQRNNDLQINMLSVQSGLTISRLTALLFQLEMKGVIKPLAGGMYHLL | -0.711
18 | HMFPTLSPEEQRIVDQLAKENDLQANVIALRTALTIPQISALLFSLEMKGMVRLYAGGTYHLI | -4.6
19 | HMFQPEQISKLNELETLVLDFIIKSPDKVQKATIRSLATQLHVSTTTIVRMSTKLGFNGWSELKFFLKNQS | -1.93
20 | HMFRDFSETLLRKLQAAGGFLPFTDKTDAEAIAEHFQVSKKTFKRAVGTLYKQRRILIDDEGITLIG | -1.59
21 | HMFRPDYYEILQVDRHASPEVITAAYRQLLSIYNSEQDGNKQMIKLIQEAYGVLGDSQDRWLYDSWLDNN | -1.34
22 | HMFRSNAERAAHLASALPRAEAELAALQARGAATSENIYLRSSYFDALRYTEELRAAKRAQDALQGA | 0.195
23 | HMFSAASSQISSYVRSVVDKAQTYEQAYEILAKNPLGFKLDALEDELFRIIANAEILGADDDE | -0.976
24 | HMFSNATISGLKAGALVRVYNISGVAVSTLTADAEGKVSVDLNNLPKGVYILSTPSKSFKVLN | -2.65
25 | HMFSWRQHLDHFGFSDEIKKRLADAVFLNDDWNEIDRGVLTKEELLARFIENDPGIEKEIYMVMENIN | -0.835
26 | HMFYPIAHTLTKLNIRSGPGEQYQKLATFENNHDLVVLTQQNEWVQVRGKSDEQVIIGWVHSSFLSPT | -2.8
27 | HMFYQLTENQRRILSSLEQNPRVSAAHLAEEIGISSRKVENNLKKLKEIGLLQRHGSPRKGYWSINQGW | -0.938
28 | HMGAAAQLLHAVVLRVPAEDTMKFVSETPELRRYLGAPLGPTAALVRPGQEQELAAALQAHGILVEFDE | -0.45

Row | Sequence | soluble fraction (log2)
29 | HMGAAITEAEAKQIALDHAGVSESETERMRVKLGRDDGVQEYEVNFYVGNREYDYDINAATGEIRSHDSE | 0.107
30 | HMGADPTTWPEIDAFVGRVAVTATGLFPSGQVEIDGRRFEARLAFGVAEPGARVVVRRRTDFGLLVEKETR | -2.38
31 | HMGADRLVGMTAIVTATIDPNDTDRKGRVQVEGEVWSALSDGRLIITEGSKVRITEMHGTRVRVEAI | -0.685
32 | HMGAEWTEMRVWTSTSGSKVTAEASSLTNGQVTLETKSGKRITLSIRKLVEADQKFLEAHFSK | -1.33
33 | HMGAGLLEPEPLKIEIQETQERLQKLQKALERDTETADSKERIKRAIEAHKARISQLQGLIE | 0.219
34 | HMGAKVFTVPNLIGKYAIEAGIILKKEGLSEGEVKEENSDKYAAGQIIDQYPAADSPAKENDKINYVVSIG | -0.066
35 | HMGANSAYMAMRDRIQQRLLAELSPGVTRSDTAEVRRVVERIFNETTAELGLPLSRLERNDIFDLVLADIL | -1.85
36 | HMGAPLAVGDSVRVVVSGPRAFVYTAPNGALSGAVRNGAAFTVLELSPDNTWARIGSGEWIKVEFLATG | -0.919
37 | HMGATYSQFLDQVDGGNVQKVTFSGDMRSGTNQISYTTRSGQSATITAPMDRDLINILRAKNVEIVQEEP | 0.232
38 | HMGAWQQTGFFRNRENAESLAEVLRQRGFSPVVREDTRPSGTVYYAVLVPDDGTTAARLKDAGIDSYPV | 0.121
39 | HMGDDYFTILGIERDATTDEIRSAYRRLSKKIHPDAQGSSALFRQVQEAYETLIDPSSRARYVAELNASQG | 0.00161
40 | HMGDERDRLLLARGKRIYQELIGSDRENVAAALREFEAVLAVNNRRAIHVMRQRLAELFGVYEEFLNEEFL | -4.51
41 | HMGDEVAVTEILVKVGDTVEADQSLLTVEGDKASMEVPAPFAGVVKAIQVQLGDKVVTGSPIMLFEV | 0.073
42 | HMGDFNYVMPDFRGLEAHDVSSFLNRNGFLLRPTEHEVSFTQRPGLILMHYPEPGYPFSRSSPITLVVS | -0.947
43 | HMGDGMEVWVNGSPVNLTGKDSFIFVDIFDFIDFDLTASKGRLIVIKVNGEYAEYTRPLHNGDTIEIYWEE | 0.0346
44 | HMGDGRVGVITASIAYEYAKEVFPEGTSFLKLGLTFPLPMDLIRDFASKVEKLYVIEELEPL | -0.122
45 | HMGDHYTALGLSIDATPEEIRSAYFLAARRSHPDANPDAQTTEWFLRVQEAYDILSNPRRRAEYDASLP | -0.6
46 | HMGDKRPIAVGDYVKLEGQDTPGQVLSISGKNATVGFGMLKTTVKLDRLRHTMAKPQTGASAGVR | -0.293
47 | HMGDKVTIPNLIDMKLTDAQNQYKPQGFSIVKNGERESDKEAGTILEQDKAAGTEISGKDIRIFVVVSSGS | 0.0688
48 | HMGDLAAAGNHTLEVMGFPQHPDESYRHFVGNGIPKLIERMLPAGHDKETEQKAYDIFMEYYSAHK | 0.609
49 | HMGDPMAIMQLSSNTTPEYWEAYQKYHIQEYEQSNFIRYVNGISVLDDDFVDKVLITIDQHGRIFSELKS | -3.21
50 | HMGDSEMPVSEVVRLAKLDQISSIEISGTKLTIITNNLETYTSRIEENSTIIEILQRAGVDIGGLEIYPHG | -1.53
51 | HMGDVSGFLRGVLADGPVPAKTVFSEASGAGYSRDQIQRAARKIGVERRKTGMAGGWVWELEP | -0.148
52 | HMGEAYVVPNVKNKTLGEAQLALHNQKLEGLVVDSSYVKGLPDGMILDQNPAGGARVKEGRTIYLTITTS | -0.0978
53 | HMGEDFPYVAYATDSVRLRSKPSSSGDILAVIRQGDAVLITGSDGNYKIVEYEGRKGYVISAFLSQTP | -1.15
54 | HMGEDLTIDQLAAEVDMTVRNIRAHQARGLLPPPTIKGRIGYYGPLHRRRLQQIRAMQEEGLNLAAIAKVV | -0.889
55 | HMGEDPYQMLGLTRQASDEEVRLAWRKLMRENHPDSLASRGVPQEFVKRATEQVAQINAAWDRIKRERG | -0.25
